To fix the notation:
B1: FBF1 (parent)
chain: YQRPQDSEDMWGDEDFTFGAYQPT
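Further: lentivirally expressed fusions sorted by FACS into six bins by GFP to DsRed ratio, PSI derived from sequencing read proportions per bin multiplied by bin number.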

The series covers variants of B1. The experiment in a line: protein stability index of a GFP-peptide fusion (GPS, HEK-293T) (PSI 1-6); higher = more stable. Particulars: c terminus: a fixed tail appended.
Regarding YQWPQDSEDMWGDEDFTFGAYQPT [R3W], the protein stability index was 2.82.

With YQSPQDSEDMWGDEDFTFGAYQPT [R3S], the protein stability index was 3.11.

Turning to YQYPQDSEDMWGDEDFTFGAYQPT [R3Y], the protein stability index is 3.09.

Take YQEPQDSEDMWGDEDFTFGAYQPT [R3E]: the protein stability index is 4.79.

In the case of YQPPQDSEDMWGDEDFTFGAYQPT [R3P], the protein stability index was determined as 3.87.

YQKPQDSEDMWGDEDFTFGAYQPT [R3K]: the protein stability index was found to be 3.64.

YQLPQDSEDMWGDEDFTFGAYQPT [R3L]: the protein stability index was 3.46.

Turning to YQGPQDSEDMWGDEDFTFGAYQPT [R3G], the protein stability index turned out to be 3.4.

Turning to YQIPQDSEDMWGDEDFTFGAYQPT [R3I], the protein stability index came out at 2.87.

Take YQQPQDSEDMWGDEDFTFGAYQPT [R3Q]: the protein stability index came out at 4.01.

Take YQDPQDSEDMWGDEDFTFGAYQPT [R3D]: the protein stability index was 4.36.

Take YQNPQDSEDMWGDEDFTFGAYQPT [R3N]: the protein stability index worked out at 3.71.

Consider YQVPQDSEDMWGDEDFTFGAYQPT [R3V], for which the protein stability index is 3.5.

Consider YQCPQDSEDMWGDEDFTFGAYQPT [R3C], for which the protein stability index was determined as 3.12.

With YQFPQDSEDMWGDEDFTFGAYQPT [R3F], the protein stability index turned out to be 3.12.

In the case of YQTPQDSEDMWGDEDFTFGAYQPT [R3T], the protein stability index is 2.62.

On to YQAPQDSEDMWGDEDFTFGAYQPT [R3A], for which the protein stability index was found to be 3.44.

Take YQMPQDSEDMWGDEDFTFGAYQPT [R3M]: the protein stability index was 3.2.

For the variant YQRCQDSEDMWGDEDFTFGAYQPT [P4C], the protein stability index was found to be 2.7.

Consider YQRKQDSEDMWGDEDFTFGAYQPT [P4K], for which the protein stability index is 2.29.

On to YQRIQDSEDMWGDEDFTFGAYQPT [P4I], for which the protein stability index is 2.68.

Regarding YQRNQDSEDMWGDEDFTFGAYQPT [P4N], the protein stability index was found to be 2.26.

In the case of YQREQDSEDMWGDEDFTFGAYQPT [P4E], the protein stability index worked out at 3.56.

YQRMQDSEDMWGDEDFTFGAYQPT [P4M]: the protein stability index is 2.74.

For YQRDQDSEDMWGDEDFTFGAYQPT [P4D], the protein stability index came out at 3.39.

In the case of YQRVQDSEDMWGDEDFTFGAYQPT [P4V], the protein stability index was found to be 2.49.

With YQRLQDSEDMWGDEDFTFGAYQPT [P4L], the protein stability index was found to be 2.74.

YQRTQDSEDMWGDEDFTFGAYQPT [P4T]: the protein stability index was 2.57.

Take YQRHQDSEDMWGDEDFTFGAYQPT [P4H]: the protein stability index was determined as 2.97.

With YQRAQDSEDMWGDEDFTFGAYQPT [P4A], the protein stability index was 2.45.

Take YQRQQDSEDMWGDEDFTFGAYQPT [P4Q]: the protein stability index was found to be 2.54.

YQRFQDSEDMWGDEDFTFGAYQPT [P4F]: the protein stability index came to 2.54.

Consider YQRRQDSEDMWGDEDFTFGAYQPT [P4R], for which the protein stability index stood at 2.26.

For the variant YQRSQDSEDMWGDEDFTFGAYQPT [P4S], the protein stability index came to 2.54.

On to YQRYQDSEDMWGDEDFTFGAYQPT [P4Y], for which the protein stability index was found to be 3.04.

Turning to YQRGQDSEDMWGDEDFTFGAYQPT [P4G], the protein stability index came to 2.69.

Turning to YQRWQDSEDMWGDEDFTFGAYQPT [P4W], the protein stability index is 2.09.

On to YQRPQDSYDMWGDEDFTFGAYQPT [E8Y], for which the protein stability index was 2.31.

YQRPQDSRDMWGDEDFTFGAYQPT [E8R]: the protein stability index amounted to 1.58.

On to YQRPQDSVDMWGDEDFTFGAYQPT [E8V], for which the protein stability index came to 1.7.

On to YQRPQDSMDMWGDEDFTFGAYQPT [E8M], for which the protein stability index worked out at 2.42.

For YQRPQDSQDMWGDEDFTFGAYQPT [E8Q], the protein stability index was 1.81.

For YQRPQDSNDMWGDEDFTFGAYQPT [E8N], the protein stability index was determined as 2.

Take YQRPQDSPDMWGDEDFTFGAYQPT [E8P]: the protein stability index turned out to be 1.65.

Regarding YQRPQDSIDMWGDEDFTFGAYQPT [E8I], the protein stability index is 1.95.

Consider YQRPQDSDDMWGDEDFTFGAYQPT [E8D], for which the protein stability index was 2.47.

In the case of YQRPQDSSDMWGDEDFTFGAYQPT [E8S], the protein stability index was determined as 2.32.

YQRPQDSKDMWGDEDFTFGAYQPT [E8K]: the protein stability index came to 1.78.

As for YQRPQDSCDMWGDEDFTFGAYQPT [E8C], the protein stability index worked out at 1.99.

For YQRPQDSADMWGDEDFTFGAYQPT [E8A], the protein stability index came out at 1.9.

For YQRPQDSLDMWGDEDFTFGAYQPT [E8L], the protein stability index was determined as 2.1.

YQRPQDSGDMWGDEDFTFGAYQPT [E8G]: the protein stability index amounted to 1.98.

Regarding YQRPQDSFDMWGDEDFTFGAYQPT [E8F], the protein stability index came out at 2.13.

In the case of YQRPQDSWDMWGDEDFTFGAYQPT [E8W], the protein stability index was 1.58.

As for YQRPQDSTDMWGDEDFTFGAYQPT [E8T], the protein stability index was determined as 2.29.

Consider YQRPQDSHDMWGDEDFTFGAYQPT [E8H], for which the protein stability index turned out to be 2.01.

YQRPQWSEDMWGDEDFTFGAYQPT [D6W]: the protein stability index came out at 1.64.

Turning to YQRPQMSEDMWGDEDFTFGAYQPT [D6M], the protein stability index is 2.32.

Regarding YQRPQKSEDMWGDEDFTFGAYQPT [D6K], the protein stability index is 1.94.

With YQRPQESEDMWGDEDFTFGAYQPT [D6E], the protein stability index is 2.59.

Turning to YQRPQQSEDMWGDEDFTFGAYQPT [D6Q], the protein stability index is 2.26.

As to YQRPQPSEDMWGDEDFTFGAYQPT [D6P], the protein stability index turned out to be 2.3.

In the case of YQRPQHSEDMWGDEDFTFGAYQPT [D6H], the protein stability index was determined as 1.84.

Regarding YQRPQCSEDMWGDEDFTFGAYQPT [D6C], the protein stability index was 2.06.

Consider YQRPQGSEDMWGDEDFTFGAYQPT [D6G], for which the protein stability index was 1.77.

With YQRPQSSEDMWGDEDFTFGAYQPT [D6S], the protein stability index is 2.24.

Regarding YQRPQYSEDMWGDEDFTFGAYQPT [D6Y], the protein stability index was 2.06.

For YQRPQFSEDMWGDEDFTFGAYQPT [D6F], the protein stability index came to 1.68.

Take YQRPQISEDMWGDEDFTFGAYQPT [D6I]: the protein stability index turned out to be 1.98.

Consider YQRPQLSEDMWGDEDFTFGAYQPT [D6L], for which the protein stability index is 2.17.

Consider YQRPQASEDMWGDEDFTFGAYQPT [D6A], for which the protein stability index amounted to 2.05.

Regarding YQRPQRSEDMWGDEDFTFGAYQPT [D6R], the protein stability index is 2.04.

Take YQRPQTSEDMWGDEDFTFGAYQPT [D6T]: the protein stability index is 2.53.

Regarding YQRPQVSEDMWGDEDFTFGAYQPT [D6V], the protein stability index stood at 2.12.

Regarding YQRPQNSEDMWGDEDFTFGAYQPT [D6N], the protein stability index is 2.25.

Consider YARPQDSEDMWGDEDFTFGAYQPT [Q2A], for which the protein stability index is 2.79.

In the case of YRRPQDSEDMWGDEDFTFGAYQPT [Q2R], the protein stability index turned out to be 3.83.

With YLRPQDSEDMWGDEDFTFGAYQPT [Q2L], the protein stability index worked out at 3.45.

In the case of YSRPQDSEDMWGDEDFTFGAYQPT [Q2S], the protein stability index is 3.53.

As to YIRPQDSEDMWGDEDFTFGAYQPT [Q2I], the protein stability index was determined as 2.08.

For the variant YYRPQDSEDMWGDEDFTFGAYQPT [Q2Y], the protein stability index was determined as 3.65.

Turning to YNRPQDSEDMWGDEDFTFGAYQPT [Q2N], the protein stability index is 3.14.

For the variant YPRPQDSEDMWGDEDFTFGAYQPT [Q2P], the protein stability index was 3.05.

Consider YCRPQDSEDMWGDEDFTFGAYQPT [Q2C], for which the protein stability index amounted to 2.7.

For YDRPQDSEDMWGDEDFTFGAYQPT [Q2D], the protein stability index was 4.81.

As to YHRPQDSEDMWGDEDFTFGAYQPT [Q2H], the protein stability index turned out to be 2.21.

For the variant YVRPQDSEDMWGDEDFTFGAYQPT [Q2V], the protein stability index worked out at 1.78.

For the variant YERPQDSEDMWGDEDFTFGAYQPT [Q2E], the protein stability index was determined as 4.26.

With YKRPQDSEDMWGDEDFTFGAYQPT [Q2K], the protein stability index stood at 3.81.

In the case of YMRPQDSEDMWGDEDFTFGAYQPT [Q2M], the protein stability index is 3.56.

Consider YFRPQDSEDMWGDEDFTFGAYQPT [Q2F], for which the protein stability index was 3.25.

For YWRPQDSEDMWGDEDFTFGAYQPT [Q2W], the protein stability index was found to be 2.38.

As to YTRPQDSEDMWGDEDFTFGAYQPT [Q2T], the protein stability index worked out at 3.54.

Consider YGRPQDSEDMWGDEDFTFGAYQPT [Q2G], for which the protein stability index was determined as 3.76.
